# Positions of bridges follow the written chain, without caps; N, C: chain ends. No end group written: not given here.
# Columns and labels:
# [1] = target: T1, EGF receptors of the Capan-1 cell line (Homo sapiens, UniProt P00533); test: Competitive binding with 125I-EGF to EGF receptors
# T1 construct: endogenous in cells; host or cells: Capan-1 (human pancreatic adenocarcinoma)
# Procedure: The detailed procedure that was employed is as follows:
# 1. 1.25×10^5 cells were seed per well in plates of 24 wells which were kept in culture for 48 h in DMEM FBS 10%. Triplicates were put for each concentration of competitor to be tested.
# 2. 24 h before the test, the full medium of the wells was replaced by 2 mL, per well, of DMEM without fetal serum.
# 3. The next day, the cells were washed, three times, with cold binding medium.
# 4. The cells were incubated with 70 μL of binding medium to which the concentrations of the competitor to be tested had been added. […] Afterwards, 40,000 cpm (350 pM) of ^125I-EFG were added. The incubation was done at 4° C. for 5 h.
# 5. The cells were washed quickly three times with 500 μL of the cold washing solution.
# 6. They were solubilized through incubation for 30 min at room temperature with the permeabilization solution.
# 7. The radioactivity in the suspension was determined with a gamma counter. To determine the unspecific binding, the value of unspecific binding was deducted from the total bounded radioactivity.
# From the test, the bounded radioactivity for each one of the tested concentrations of unlabeled competitor was determined. […] To determine the percentage, the following formula was applied: [formula]
# where B is the amount of specific binding in presence of a specific competitor concentration.
# With the aim of determining the kind of binding which is taking place, a pseudo-Hill or Logit-log representation (Pratt, W. B. and Taylor, P. “Principles of Drug Action. The Basis of Pharmacology”. Ed. Churchill Livingstone, N.Y., 1990) was carried out. The data of specific binding percentage are used to calculate the log(P/[100-P]), which is represented versus the logarithm of the competitor concentration.
# The resulting slope of the straight line is called pseudo-Hill coefficient.
# The fitting has been made using the programme Graphpad Inplot4. A non-linear fitting for competition for two binding sites is made. The logarithm of the competitor concentration has been represented versus the values of Logit-log (FIG. 25).
# From the previous fitting, the value of IC50, that is to say, the competitor concentration which inhibits 50% of the specific binding for the two types of binding was determined. Also, the percentage of the two types of binding sites was determined.
# p53 = test: Gene expression analysis by Northern transfer, p53 probe; type: cell-based, human; details: for beta counts, p53 probe: 12 days, Capan-1 (control 138)
# Procedure: To verify whether the PCI plays any role in signal transduction, studies of gene expression were carried out by Northern transfer. The probes were: β2-microglobulin, p53 and trypsin. The β2-microglobulin is a constitutive gene that is used as a sample loading control in the gel. p53 is a transcription factor which, among other functions, controls the state of the genomic DNA and the cell cycle (Bates, S. & Vousden, K. H. (1996) Curr. Opin. Genet. Develop., 6: 12-19). If the DNA is damaged, p53 induces its repair and, if it is excessively damaged, it provokes programmed cellular death (apoptosis). Trypsin is a marker of pancreatic cells of the acinar type. The trypsin is not expressed by all the tumoral cells and it is believed that it is expressed by the cells with metastatic power and/or invasive power (Fernández, E. et al., (1994) Cancer, 73: 2285-2295). The probes employed are described as follows:
# In the first place, 3×10^6 cells of the human pancreatic adenocarcinoma cell line Capan-1 were placed in each one of the 12 flasks of 150 cm^2. […] They were maintained in culture for 12 days period, changing their medium every 4 days, adding fresh PCI. Once the treatment was completed, the cells were trypsinized and the sediment of the cells was kept at −80° C. Afterwards, the extraction of the RNA was carried out.
# The quantifying of the hybridized filters with the respective probes was done using a Betascope 601 blot Analyzer counter (Betagen, USA). The counting time was 45 min for the hybridized filter with the probe p53 and β2-microglobuline and 2 h for the trypsin probe.
# Assuming that the counts of the β2-Microglobuline are an indication of the total amount of poly(A^+) RNA, the data may be standardized as a percentage of counts of the band compared to the β2-microglobuline counts of the same cells, giving a value which depends on the abundance of the specific mRNA in relation to the total of mRNA.
# Capan-1 cell line = test: Proliferation of Capan-1 cells pretreated with PCI; type: cell-based, human; details: pretreatment 50 μg/mL of PCI, 28-34 days; treatment 5-18 days
# Procedure: In the case of the Capan-1 cell line, two different tests and which are described as follows were carried out:
# 1. 5,000 cells were seed in 2 wells of a plate of 12 wells. One of the wells was grown with medium (non-pretreated cells), and the other with medium with 50 μg/mL of PCI (pretreated cells). The cells were kept in such conditions for the period of time that is indicated in the results section as time of pretreatment.
# 2. Twice a week, the medium of the wells was replaced by fresh medium with or without PCI, and each time that in any of the wells confluence was reached, the cells were trypsinized and 1/10 of them was placed again in the original well, the other cells being discarded or frozen.
# 3. Once the desired time of pretreatment elapsed, the cells were trypsinized and counted, being employed to start proliferation tests such as those described in Section 4.B.2.1. The number of cells that was placed per well in the proliferation plate (of 96 wells) was 2,000, 7 replicas being put for each treatment. The cells underwent treatment with or without various PCI concentrations.
# 4. Once the treatment time elapsed, the number of cells per well was estimated as previously described in Section 4.B.2.a.
# [2] = [PCI] nM 1, 350 pM 125I-EGF, 5 h, 4° C.
substance,measurement,setting,value
"PCI: potato carboxypeptidase inhibitor, isoform IIa, obtained by recombinant DNA techniques in E. coli (SEQ ID NO.2) (EQHADPICNKPCKTHDDCSGAWFCQACWNSARTCGPYVG; disulfide 12-27, 18-34, 8-24)",% Receptors,[1]; High affinity binding site,99.7%
same,Log (P/[100-P]),[1]; Log [PCI] M −4.33,−0.272
same,Log (P/[100-P]),[1]; Log [PCI] M −4.93,−0.2246
same,Log (P/[100-P]),[1]; Log [PCI] M −5.83,−0.1873
same,Log (P/[100-P]),[1]; Log [PCI] M −6.63,"0,605"
same,Log (P/[100-P]),[1]; Log [PCI] M −7.63,0.713
same,Log (P/[100-P]),[1]; Log [PCI] M −8.63,1.205
same,Log (P/[100-P]),[1]; Log [PCI] M −9,1.99
same,% Receptors,[1]; Low affinity binding site,0.3%
same,Percentage of specific binding,[1]; [2],99%
same,Specific binding (cpm),[1]; [2],1597 cpm
same,Percentage of specific binding,[1]; [PCI] nM 2.32,94.14%
same,Specific binding (cpm),[1]; [PCI] nM 2.32,1503.5 cpm
same,Percentage of specific binding,[1]; [PCI] nM 23.2,83.78%
same,Specific binding (cpm),[1]; [PCI] nM 23.2,1307 cpm
same,Percentage of specific binding,[1]; [PCI] nM 232.8,80.13%
same,Specific binding (cpm),[1]; [PCI] nM 232.8,1250 cpm
same,Percentage of specific binding,[1]; [PCI] nM 2328.2,39.38%
same,Specific binding (cpm),[1]; [PCI] nM 2328.2,621.5 cpm
same,Percentage of specific binding,[1]; [PCI] nM 11641,37.35%
same,Specific binding (cpm),[1]; [PCI] nM 11641,582.6 cpm
same,Percentage of specific binding,[1]; [PCI] nM 46566,34.83%
same,Specific binding (cpm),[1]; [PCI] nM 46566,543.33 cpm
same,"binding capacity to the receptor of high affinity, times inferior to that of the EGF",[1]; high affinity receptor,6 times
same,higher transcription of p53 in relation to the control group cells (treatment/control),p53; 1 mg/mL PCI,2.8 times
same,p53/b2 (counts of one band in relation to those of β2-microglobuline),p53; 1 mg/mL PCI (control 0.1445),0.4040
same,"beta counts, p53 probe",p53; 1 mg/mL PCI,882
same,higher transcription of p53 in relation to the control group cells (treatment/control),p53; 10 mg/mL PCI,1.2 times
same,"beta counts, p53 probe",p53; 10 mg/mL PCI,1111
same,"final number of cells, pretreated cells cultivated afterwards in absence of PCI vs non-pretreated cells",Capan-1 cell line,approximately half
